Data reported in the supplement of paper PMC11246515.
± gives the standard deviation of the averaged measurements.

Test: total protein half-life in vivo (active degradation + dilution); higher = more stable protein
[1] = E. coli NCM3722 delta-clpP delta-lon delta-hslV, growth: N-lim chemostat, doubling time 6 h
[2] = E. coli NCM3722 delta-clpP, growth: N-lim chemostat, doubling time 6 h
[3] = E. coli NCM3722 delta-hslV, growth: N-lim chemostat, doubling time 6 h
[4] = E. coli NCM3722 delta-lon, growth: N-lim chemostat, doubling time 6 h
[5] = E. coli NCM3722 delta-smpB, growth: N-lim chemostat, doubling time 6 h
[6] = wild type E. coli NCM3722, growth: C-lim chemostat, doubling time 3 h
[7] = wild type E. coli NCM3722, growth: C-lim chemostat, doubling time 6 h
[8] = wild type E. coli NCM3722, growth: C-lim chemostat, doubling time 12 h
[9] = wild type E. coli NCM3722, growth: N-lim chemostat, doubling time 6 h
[10] = wild type E. coli NCM3722, growth: N-lim chemostat, doubling time 12 h
[11] = wild type E. coli NCM3722, growth: P-lim chemostat, doubling time 12 h
[12] = wild type E. coli NCM3722, growth: P-lim chemostat, doubling time 6 h

Sequence | total protein half-life in vivo [1] [h] | total protein half-life in vivo [2] [h] | total protein half-life in vivo [3] [h] | total protein half-life in vivo [4] [h] | total protein half-life in vivo [5] [h] | total protein half-life in vivo [6] [h] | total protein half-life in vivo [7] [h] | total protein half-life in vivo [8] [h] | total protein half-life in vivo [9] [h] | total protein half-life in vivo [10] [h] | total protein half-life in vivo [11] [h] | total protein half-life in vivo [12] [h]
MAEAQNDPLLPGYSFNAHLVAGLTPIEANGYLDFFIDRPLGMKGYILNLTIRGQGVVKNQGREFVCRPGDILLFPPGEIHHYGRHPEAREWYHQWVYFRPRAYWHEWLNWPSIFANTGFFRPDEAHQPHFSDLFGQIINAGQGEGRYSELLAINLLEQLLLRRMEAINESLHPPMDNRVREACQYISDHLADSNFDIASVAQHVCLSPSRLSHLFRQQLGISVLSWREDQRISQAKLLLSTTRMPIATVGRNVGFDDQLYFSRVFKKCTGASPSEFRAGCEEKVNDVAVKLS [P0A9E0] | 5.38 ± 0.2 | 1.95 | 1.21 ± 0.4 | 1.26 ± 0.079 | 0.763 ± 0.18 | 0.747 ± 0.18 | 1.42 ± 0.059 | 1.81 ± 0.044 | 1.08 ± 0.057 | 1.34 ± 0.25 | 1.12 | –
MRALLPYLALYKRHKWMLSLGIVLAIVTLLASIGLLTLSGWFLSASAVAGVAGLYSFNYMLPAAGVRGAAITRTAGRYFERLVSHDATFRVLQHLRIYTFSKLLPLSPAGLARYRQGELLNRVVADVDTLDHLYLRVISPLVGAFVVIMVVTIGLSFLDFTLAFTLGGIMLLTLFLMPPLFYRAGKSTGQNLTHLRGQYRQQLTAWLQGQAELTIFGASDRYRTQLENTEIQWLEAQRRQSELTALSQAIMLLIGALAVILMLWMASGGVGGNAQPGALIALFVFCALAAFEALAPVTGAFQHLGQVIASAVRISDLTDQKPEVTFPDTQTRVADRVSLTLRDVQFTYPEQSQQALKGISLQVNAGEHIAILGRTGCGKSTLLQQLTRAWDPQQGEILLNDSPIASLNEAALRQTISVVPQRVHLFSATLRDNLLLASPGSSDEALSEILRRVGLEKLLEDAGLNSWLGEGGRQLSGGELRRLAIARALLHDAPLVLLDEPTEGLDATTESQILELLAEMMREKTVLMVTHRLRGLSRFQQIIVMDNGQIIEQGTHAELLARQGRYYQFKQGL | > 8 | 6.58 ± 0.21 | 6.08 ± 0.081 | 6.01 ± 0.34 | 5.928 ± 0.023 | 3.08 ± 0.092 | 5.92 ± 0.12 | – | 5.99 ± 0.31 | 11.7 ± 0.28 | 12.3 ± 1.1 | 6.274 ± 0.058
MLIPWQDLSPETLENLIESFVLREGTDYGEHERTLEQKVADVKRQLQCGEAVLVWSELHETVNIMPRSQFRE | 5.2 | 3.21 | – | 4.14 | – | – | 3.93 | – | – | – | 7.98 | 4.61
MLSRHINYFLAVAEHGSFTRAASALHVSQPALSQQIRQLEESLGVPLFDRSGRTIRLTDAGEVWRQYASRALQELGAGKRAIHDVADLTRGSLRIAVTPTFTSYFIGPLMADFYARYPSITLQLQEMSQEKIEDMLCRDELDVGIAFAPVHSPELEAIPLLTESLALVVAQHHPLAVHEQVALSRLHDEKLVLLSAEFATREQIDHYCEKAGLHPQVVIEANSISAVLELIRRTSLSTLLPAAIATQHDGLKAISLAPPLLERTAVLLRRKNSWQTAAAKAFLHMALDKCAVVGGNESR | 5.07 ± 0.31 | – | – | 6.84 | – | 2.02 ± 0.18 | 4.75 ± 0.2 | 6.21 | – | 12.6 | 5.16 ± 2 | 5.54
MDALSRLLMLNAPQGTIDKNCVLGSDWQLPHGAGELSVIRWHALTQGAAKLEMPTGEIFTLRPGNVVLLPQNSAHRLSHVDNESTCIVCGTLRLQHSARYFLTSLPETLFLAPVNHSVEYNWLREAIPFLQQESRSAMPGVDALCSQICATFFTLAVREWIAQVNTEKNILSLLLHPRLGAVIQQMLEMPGHAWTVESLASIAHMSRASFAQLFRDVSGTTPLAVLTKLRLQIAAQMFSRETLPVVVIAESVGYASESSFHKAFVREFGCTPGEYRERVRQLAP | – | – | 6.33 | 6.04 | 5.156 ± 0.014 | – | 5.12 ± 3.4 | 11.8 ± 2.5 | 5.92 ± 0.51 | – | 12.4 ± 1.3 | 5.4 ± 0.16
MFDRYDAGEQAVLVHIYFTQDKDMEDLQEFESLVSSAGVEALQVITGSRKAPHPKYFVGEGKAVEIAEAVKATGASVVLFDHALSPAQERNLERLCECRVIDRTGLILDIFAQRARTHEGKLQVELAQLRHLATRLVRGWTHLERQKGGIGLRGPGETQLETDRRLLRNRIVQIQSRLERVEKQREQGRQSRIKADVPTVSLVGYTNAGKSTLFNRITEARVYAADQLFATLDPTLRRIDVADVGETVLADTVGFIRHLPHDLVAAFKATLQETRQATLLLHVIDAADVRVQENIEAVNTVLEEIDAHEIPTLLVMNKIDMLEDFEPRIDRDEENKPNRVWLSAQTGAGIPQLFQALTERLSGEVAQHTLRLPPQEGRLRSRFYQLQAIEKEWMEEDGSVSLQVRMPIVDWRRLCKQEPALIDYLI | 5.01 ± 0.4 | 4.19 ± 0.56 | 3.18 ± 0.019 | 3.87 ± 0.12 | 2.77 ± 0.12 | 2.34 ± 0.078 | 4.15 ± 0.4 | 5.93 ± 0.57 | 3.31 ± 0.19 | 4.68 ± 0.19 | 5.9 ± 0.61 | 3.34 ± 0.12
